The values that follow come from patent US20260049115A1.

The experiment has as its target CCR5 on ThP1 human monocytes (human) (UniProt P51681).

Chain of CCR5 on ThP1 human monocytes (human) (P51681 whole entry): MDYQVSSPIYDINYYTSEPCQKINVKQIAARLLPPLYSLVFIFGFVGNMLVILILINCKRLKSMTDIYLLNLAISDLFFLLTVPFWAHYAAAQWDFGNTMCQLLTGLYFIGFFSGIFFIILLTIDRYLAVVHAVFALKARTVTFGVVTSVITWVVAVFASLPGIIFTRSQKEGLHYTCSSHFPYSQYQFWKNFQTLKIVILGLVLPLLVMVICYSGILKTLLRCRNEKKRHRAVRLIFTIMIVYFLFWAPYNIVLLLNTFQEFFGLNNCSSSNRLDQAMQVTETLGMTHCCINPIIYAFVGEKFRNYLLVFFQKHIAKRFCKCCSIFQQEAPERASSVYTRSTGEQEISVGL

With “native form murine CCL4 (from UniProt P14097 24-92) (ligand)”, the EC50, calcium flux (RFU) in ThP1 monocytes [panel D] amounted to 6.3 nM.
